{"source": "patent US20110190477A1", "about": "(G2 INFLAMMATION, published 2011)", "binders": {"B1": {"name": "mouse anti-C5aR monoclonal antibody 7F3 (antibody, V domains shown)", "VH": "QVQLQQSGPELVKPGASVKISCKASGYAFSNSWMNWVKQRPGKGLEWIGRIYPGDGDTKYNGKFKGKATLTADKSSSTAYMQLSSLTSEDSAVYFCARFLLISTVTAVDYWGQGTTLTVSS", "VL": "DVVMTQSPLSLPVSLGNQASISCRSSQSLVHSNGNTYLHWYLQKPGQSPKLLIYKVSNRFSGVPDRFSGSGSGTDFSLKISRVEAEDLGVYFCSQSTLVPLTFGAGTKLELK", "notes": "Mouse monoclonal from hybridoma ECACC 00110609; also called m7F3; mouse 7F3"}, "B2": {"name": "humanized anti-C5aR antibody hAb-J (antibody, human IgG4 S228P, kappa)", "light": "DVVMTQSPLSLPVTLGEPASISCRSSQSLVHSNGNTYLHWYLQKPGQSPQLLIYKVSNRFSGVPDRFSGSGSGTDFTLKISRVEAEDVGVYFCSQSTLVPLTFGQGTKLEIKTVAAPSVFIFPPSDEQLKSGTASVVCLLNNFYPREAKVQWKVDNALQSGNSQESVTEQDSKDSTYSLSSTLTLSKADYEKHKVYACEVTHQGLSSPVTKSFNRGEC", "heavy": "not shown", "notes": "also called antibody J"}, "B3": {"name": "humanized anti-C5aR antibody hAb-Q (antibody, human IgG4 S228P, kappa)", "light": "DVVMTQSPLSLPVTLGEPASISCRSSQSLVHSNGNTYLHWYLQKPGQSPQLLIYKVSNRFSGVPDRFSGSGSGTDFTLKISRVEAEDVGVYFCSQSTLVPLTFGQGTKLEIKRTVAAPSVFIFPPSDEQLKSGTASVVCLLNNFYPREAKVQWKVDNALQSGNSQESVTEQDSKDSTYSLSSTLTLSKADYEKHKVYACEVTHQGLSSPVTKSFNRGEC", "heavy": "not shown", "notes": "IgG4 with the Ser228Pro mutation; also called antibody Q; anti-C5aR ab"}}, "note": "No end group written: not given here. *: point of attachment. Biotin = O=C1N[C@H]2[C@H](CS[C@H]2CCCCC(=O)*)N1", "data": [{"molecular_target": "T1, peptide 8 (12 mer from the 2nd extracellular loop of human C5aR) (human)", "T1 construct": "worked out from 22 12 mers offset by one over 173-205; also called peptide no", "T1 peptide": "Biotin-SGSGEYFPPKVLCGVD", "assay": "peptide ELISA, biotin peptide on streptavidin plate", "text": "(§1) A set of 22 overlapping peptides (12 mers), each offset by 1 residue from the next, spanning the second extracellular loop (3rd extracellular domain) of human C5aR was synthesised (Mimotopes, Melbourne). Each peptide was made with a biotin group and 4-amino acid linker (SGSG) at its N-terminus. One peptide synthesised, no. 23, was a 33 mer, representing the full length of the 2nd extracellular loop of hC5aR (residues 173-205 from SEQ ID NO:37), also had biotin-SGSG at the N-terminus.\n(§2) The experiment was conducted by binding the peptides to a 384-well streptavidin-coated plate then incubating the antibodies with the peptides and detecting bound antibody with an anti-mouse IgG conjugated to horse radish peroxidase (HRP) as follows. Each peptide was dissolved in 200 μl of 60% DMSO to a concentration of 10 mg/ml. Peptides were further diluted 1:1000 to a working strength of 10 μg/ml with PBS/Tween 20/azide solution (0.1% w/v sodium azide in PBS/0.05% Tween 20).\n(§3) A 384 well streptavidin-coated plate (Nunc) was blocked with 20 μl of blocking buffer (1% w/v BSA in PBS) per well. The plate was washed 4 times with PBS/Tween20 buffer (0.1% v/v Tween 20 in PBS). 20 μl of diluted peptide solution was transferred into a well and the plate incubated for 1 hour at room temperature. After washing the plate 4 times (as above) 20 μl antibody (0.5, 1, 1.25, 2.5 or 5 μg/ml) was added to the well and the plate was incubated for 1 hour at 20° C. The plate was washed 4 times as above then 20 μlHRP-conjugated anti-mouse IgG (1:5000 dilution in PBS/Tween 20) was added to each well. After a 1 hour incubation at room temperature the plate was washed 3 times (as above) then twice with PBS to remove traces of Tween. The presence of peroxidase was detected by adding 20 μl of freshly prepared TMB Substrate reagent (BD Opt EIA) to each well and incubating at room temperature for 20 min. Finally the plate was read at 650 nm/450 nm.", "values": [{"binder": "B1", "binding result": "no binding"}, {"binder": "B2", "binding result": "no binding"}, {"binder": "B3", "binding result": "no binding"}]}, {"molecular_target": "T2, peptide 10 (12 mer from the 2nd extracellular loop of human C5aR) (human)", "T2 construct": "worked out from 22 12 mers offset by one over 173-205; also called peptide no; 10", "T2 peptide": "Biotin-SGSGFPPKVLCGVDYS", "assay": "peptide ELISA, biotin peptide on streptavidin plate", "text": "as §1, §2, §3", "values": [{"binder": "B1", "binding result": "no binding"}, {"binder": "B2", "binding result": "no binding"}, {"binder": "B3", "binding result": "no binding"}]}, {"molecular_target": "T3, peptide 11 (12 mer from the 2nd extracellular loop of human C5aR) (human)", "T3 construct": "worked out from 22 12 mers offset by one over 173-205; also called peptide no; 11", "T3 peptide": "Biotin-SGSGPPKVLCGVDYSH", "assay": "peptide ELISA, biotin peptide on streptavidin plate", "text": "as §1, §2, §3", "values": [{"binder": "B1", "binding result": "no binding"}, {"binder": "B2", "binding result": "no binding"}, {"binder": "B3", "binding result": "no binding"}]}, {"molecular_target": "T4, peptide 12 (12 mer from the 2nd extracellular loop of human C5aR) (human)", "T4 construct": "worked out from 22 12 mers offset by one over 173-205; also called peptide no; 12", "T4 peptide": "Biotin-SGSGPKVLCGVDYSHD", "assay": "peptide ELISA, biotin peptide on streptavidin plate", "text": "as §1, §2, §3", "values": [{"binder": "B1", "binding result": "no binding"}, {"binder": "B2", "binding result": "no binding"}, {"binder": "B3", "binding result": "no binding"}]}, {"molecular_target": "T5, peptide 14 (12 mer from the 2nd extracellular loop of human C5aR) (human)", "T5 construct": "worked out from 22 12 mers offset by one over 173-205; also called peptide no; 14", "T5 peptide": "Biotin-SGSGVLCGVDYSHDKR", "assay": "peptide ELISA, biotin peptide on streptavidin plate", "text": "as §1, §2, §3", "values": [{"binder": "B1", "binding result": "no binding"}, {"binder": "B2", "binding result": "no binding"}, {"binder": "B3", "binding result": "no binding"}]}, {"molecular_target": "T6, peptide 17 (12 mer from the 2nd extracellular loop of human C5aR) (human)", "T6 construct": "worked out from 22 12 mers offset by one over 173-205; also called peptide no; 17", "T6 peptide": "Biotin-SGSGGVDYSHDKRRER", "assay": "peptide ELISA, biotin peptide on streptavidin plate", "text": "as §1, §2, §3", "values": [{"binder": "B1", "binding result": "no binding"}, {"binder": "B2", "binding result": "no binding"}, {"binder": "B3", "binding result": "no binding"}]}, {"molecular_target": "T7, peptide 19 (12 mer from the 2nd extracellular loop of human C5aR) (human)", "T7 construct": "worked out from 22 12 mers offset by one over 173-205; also called peptide no; 19", "T7 peptide": "Biotin-SGSGDYSHDKRRERAV", "assay": "peptide ELISA, biotin peptide on streptavidin plate", "text": "as §1, §2, §3", "values": [{"binder": "B1", "binding result": "no binding"}, {"binder": "B2", "binding result": "no binding"}, {"binder": "B3", "binding result": "no binding"}]}, {"molecular_target": "T8, peptide 22 (12 mer from the 2nd extracellular loop of human C5aR) (human)", "T8 construct": "worked out from 22 12 mers offset by one over 173-205; also called peptide no; 22", "T8 peptide": "Biotin-SGSGHDKRRERAVAIV", "assay": "peptide ELISA, biotin peptide on streptavidin plate", "text": "as §1, §2, §3", "values": [{"binder": "B1", "binding result": "no binding"}, {"binder": "B2", "binding result": "no binding"}, {"binder": "B3", "binding result": "no binding"}]}]}
